Assay results reported in the nanobody polyreactivity screen of Harvey et al. (2022).

Assay: yeast display, Sf9 membrane polyspecificity reagent, FACS + sequencing; frameworks hold sequencing errors
Outline: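 Genes from sorted yeast were amplified by colony PCR, read by MiSeq 2 × 250 sequencing and filtered on CDR length. These cells carried a synthetic nanobody library in Saccharomyces cerevisiae BJ5465 and were sorted by FACS into low and high (top ~1%) gates on anti-HA and streptavidin fluorescence. Polyreactivity is labelled according to the gate of origin.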
With “QVQLVESGGGLVQAGGSLRLSCAASGFTISAYAMGWYRQAPGKERQLVASISRGGITNYADSVKGRFTISRDNAKNTVYLQMTSLKPEETAVYYCAAETRNHGILYDYWGQGTQVTVSS” the “polyreactivity (PSR sort gate)” value was “high polyreactivity”.
In the case of “QVQLVESGGGLVQAGGSLRLSCAASGFTISKYAMGWYRQAPGKERELVAVISSGGRTNYADSVKGRFTISRDNAKNTVYLQMNSLKPEDTAVDYCAAIGWRTRSRFEYWGQGTQVTVSS”, the “polyreactivity (PSR sort gate)” value is reported as “high polyreactivity”.
In the case of “QVQLVESGGGLVQAGGSLRLSCAASGFTISRYTMGWYRQAPGKERELVASITRRAGSTYYADSVKGRYTISRDNAQTTVYLQMYSLKPEDTAVYYCAAYGWTFSKVDLEMDYWGQGTQVTVSS”, the “polyreactivity (PSR sort gate)” value is reported as “high polyreactivity”.
In the case of “QVQLVESGGGLVQAGGSLRLSCAASGFTIVPYAMGWYRQAPGNERELVAAISRRGSRTYYADSVKGRFTISRDNAKNTVYLQMNSLKAEDTAVYYCAAKLSAVKAAYDYWGQGTQVTVSS”, the “polyreactivity (PSR sort gate)” value is reported as “high polyreactivity”.
For “QVQLVESGGGLVQAGGSLRLSCAASGFTIVYYAMGWYRQAPGKERELVAVISSRGGSTYYADSVKGRFTISRDNAKNTVYLQMNSLKPEDTAVYYCAARGRGQPFVRYDYWGQGTQVTVSS”, the “polyreactivity (PSR sort gate)” value was “high polyreactivity”.
For “QVQLVESGGGLVQAGGSLRLSCAASGFTIWDYAMGWYRQAPGKERELVAAISRRGGTTYYADSVKGRFTISRDNAKNTVYLQMNSLKPEETAVYYCATYSYTWLNYYWGQGTQVTVSS”, the “polyreactivity (PSR sort gate)” value was “high polyreactivity”.
In the case of “QVQLVESGGGLVQAGGSLRLSCAASGFTIWPYAMGWYRQPPGKERELVAGITRNGGSTYYADSVKGRFTISRDNAKNTVYLQMNSLKPEDTAVYYCNTKYAVEFDYWGQGTQVTVSS”, the “polyreactivity (PSR sort gate)” value is reported as “low polyreactivity”.
In the case of “QVQLVESGGGLVQAGGSLRLSCAASGFTIWQNAMGWYRQAPGKERELVAGIRLSGGSTYADSVKGRFTISRDNAKNTVYLQMNSLKAEDTAVYYCNAAYKNSPYDYWGQGTQVTVSS”, the “polyreactivity (PSR sort gate)” value is reported as “high polyreactivity”.
With “QVQLVESGGGLVQAGGSLRLSCAASGFTIYRNAMGWYRQAPGKERELVARIRRTGGRTYYADSVKGRFTISRDNAKNTVNLQMNSLKPEDTAVYYCAAYPGPGARYYYWGQGTQVTVSS” the “polyreactivity (PSR sort gate)” value was “high polyreactivity”.
With “QVQLVESGGGLVQAGGSLRLSCAASGFTLADNTMGWYRQAPGKERELVATISGSGSTYYADSVKGRFTISRDNAKNTVYLQMNSLKPEDTAVYYCAAVDTGTEKDLLRLGNGGYDYWGQGTQVTVSS” the “polyreactivity (PSR sort gate)” value was “low polyreactivity”.
For “QVQLVESGGGLVQAGGSLRLSCAASGFTLAGYDMGWYRQAPGKEREFVATISTYADSVKGRFTISRDNAKNTVYLQMNSQKPEDSAVYYCAAGRYLWHFTFDYWGQGTQVTVSS”, the “polyreactivity (PSR sort gate)” value was “low polyreactivity”.
With “QVQLVESGGGLVQAGGSLRLSCAASGFTLATYAMGWYRQAPGKERELVAAITRSGGSTYYADSVKGRFTISRDNAKNTVYLQMNSLKPEDTAVYYCNAREVRYEYNYWGQGTQVTVSS” the “polyreactivity (PSR sort gate)” value was “low polyreactivity”.
With “QVQLVESGGGLVQAGGSLRLSCAASGFTLAYYAMGWSRQAPGKERELVAAISWSGDTTYYADSVKGRFTISRDNAKNTVYLQMNSLKPEDTAVYYCAADYYLWGQGTQVTVSS” the “polyreactivity (PSR sort gate)” value was “high polyreactivity”.
For “QVQLVESGGGLVQAGGSLRLSCAASGFTLDKYAMGWYRQAPGKERELVAAITWSGGSTYYADSVKGRFTISRDNAKNTVYLQMNSLKPEDTAVYYCNVLRYRLWGQGTQVTVSS”, the “polyreactivity (PSR sort gate)” value was “high polyreactivity”.
For “QVQLVESGGGLVQAGGSLRLSCAASGFTLDPYALGWYRQAPGKERELVAAIRLSGCSTYYADSVKGRFTISRDNAKNTVYLQMNSLKPEDTAVYYCAADGISHWLYRYDYWGQGTQVTVSS”, the “polyreactivity (PSR sort gate)” value was “low polyreactivity”.
For “QVQLVESGGGLVQAGGSLRLSCAASGFTLDWYAMGWYRQAPGKERELVAAIWSAGTTYYADSVKGRFTISRDNAKNTVYLQMNSLKPEDTAVYYCATVSDYDFGLYDYWGQGSQVTVSS”, the “polyreactivity (PSR sort gate)” value was “low polyreactivity”.
With “QVQLVESGGGLVQAGGSLRLSCAASGFTLDWYVMGWYRQATGKERELVAAISSSGGRTYYADSVKGRFTISRDNAKNTVYLQMNSLKPEDTAVYYCAARNQYGGYPYGYDYWGQGTQVTVSS” the “polyreactivity (PSR sort gate)” value was “high polyreactivity”.
In the case of “QVQLVESGGGLVQAGGSLRLSCAASGFTLDYYAMGWYRKAPGKERELVAAISFSGGSTYYADSVKGRFTISRDNAKNTVYLQMNSLKPEDTAVYYCAADPQIVWYDYWGQGTQVTVSS”, the “polyreactivity (PSR sort gate)” value is reported as “low polyreactivity”.
For “QVQLVESGGGLVQAGGSLRLSCAASGFTLEYYAMGWYRQAPGKERELVAAITNGASTNYADSVKGRFTISRDNAKNTVYLQMNSLKPEDTAVYYDYWGQGTQVTVSS”, the “polyreactivity (PSR sort gate)” value was “low polyreactivity”.
With “QVQLVESGGGLVQAGGSLRLSCAASGFTLFFYAMGWYRQAPGKEREFVASIRTSGGSTYYADSVKGRFTISRDNAKNTVYLQMNSLKPEDTAVYYCAARPLYGYGYWGQGTQVTVSS” the “polyreactivity (PSR sort gate)” value was “high polyreactivity”.
For “QVQLVESGGGLVQAGGSLRLSCAASGFTLGGYAMGWYRQAPGKEREFVAAISGRGGRTYYADSVKGRFTISRDNAKNTVYLQMNSLKPEDTAVYYCAAPTNHWTRLSGDYWGQGTQVTVSS”, the “polyreactivity (PSR sort gate)” value was “high polyreactivity”.
In the case of “QVQLVESGGGLVQAGGSLRLSCAASGFTLGNYAMGWYRQAPGKERELVAVITSGGRTYYADSVKGRFTISRDNAKNTVYLQMNSLKPEDTAVYYCNTKVYYYYRAVVDFDYWGQGTQVTVSS”, the “polyreactivity (PSR sort gate)” value is reported as “low polyreactivity”.
With “QVQLVESGGGLVQAGGSLRLSCAASGFTLGRNAMGWYRQAPGKERELVASISGRGGSSYYADSVKGRFTISRDNAKNTVYLQMNSLKPEDTAVYYCAARGVSGKYYYWGQGTQVTVSS” the “polyreactivity (PSR sort gate)” value was “high polyreactivity”.
In the case of “QVQLVESGGGLVQAGGSLRLSCAASGFTLGTYAMGWYRQAPGKERELVAAISRGGGITYYADSVKGRFTISRDNAKNTVYLQMISLKPEDTAVYDCAADWRYWRWAFDYWGQGTQVTVSS”, the “polyreactivity (PSR sort gate)” value is reported as “high polyreactivity”.
For “QVQLVESGGGLVQAGGSLRLSCAASGFTLGWYAMGWYRQAPGKERELVAAISRSGGSTYYADSVKGRFTISRDNAKNTVYLQMNCLKPEDTGVYYCAAEVNYAGRAVWSYYWGQGTQVTVSW”, the “polyreactivity (PSR sort gate)” value was “high polyreactivity”.
For “QVQLVESGGGLVQAGGSLRLSCAASGFTLIHYAMGWYRQAPGKERELVAGITTSGGSTYYADSVKGRFTISRDNAKNTGYLQMNSLKPEDTAVYYCNAEYRRRPKLGDEDEYWGQGTQVTVSS”, the “polyreactivity (PSR sort gate)” value was “high polyreactivity”.
In the case of “QVQLVESGGGLVQAGGSLRLSCAASGFTLKRYAMGWYRQAPGKERELVAAISTGGSTYYADSVKGRFTISRDNAKNTVYLQMNSLKPEDTAVYYCAAKRYNRLRSYRYSDREDYWGQGTQVTVSS”, the “polyreactivity (PSR sort gate)” value is reported as “high polyreactivity”.
With “QVQLVESGGGLVQAGGSLRLSCAASGFTLKYNTMGWYRPAPGKERELVAAISRIGGRTYYADSVKGRFTISRDYAKNTVYLHKNSLKPEDTAVYYCAAVYRVCWRTYGYWGQGTQVTVSS” the “polyreactivity (PSR sort gate)” value was “high polyreactivity”.
With “QVQLVESGGGLVQAGGSLRLSCAASGFTLQGYAMGWYRQAPGKERELVAAIRWIGTSTYYADSVKGRFTISRDIAKNTVYLQMNSLKPEDTAVYYCAAYRYNTPFGYWGQGTQVTVSS” the “polyreactivity (PSR sort gate)” value was “high polyreactivity”.
For “QVQLVESGGGLVQAGGSLRLSCAASGFTLQVYDMGWYRQAPGKERELVADISGSGDSTNYADSVKGRFTISRDNAKNTVYLQMNSLKPEDTAVYYCAAEVRGGYYGYDYWGQGTQVTVSS”, the “polyreactivity (PSR sort gate)” value was “low polyreactivity”.
In the case of “QVQLVESGGGLVQAGGSLRLSCAASGFTLRLYTMGWYIQAPGKERELVAAISRSGGSTYYADSVKGRFTISRDNAKNTVYLQMNSLKPEDPAVYYCNAKNGRPGFNMYHWGQGTQVTVSS”, the “polyreactivity (PSR sort gate)” value is reported as “high polyreactivity”.
For “QVQLVESGGGLVQAGGSLRLSCAASGFTLRRNAIGWYRQAPGKERELVAAISSSGSTYYADSVKGRFTISRDNAKNTVYLQMYSLKPEDTAVYYCAAQPGRRAGRSGFDYWGQGTQVNVSS”, the “polyreactivity (PSR sort gate)” value was “high polyreactivity”.
In the case of “QVQLVESGGGLVQAGGSLRLSCAASGFTLSRYVMGWYRQAPGKERELVATISTDTGDTYYADSVKGRFTISRDNAKNTVYLQMNSLKPEDTAVYYCAVEEWYIYLDLYWSYYYWGQGTQVTVSS”, the “polyreactivity (PSR sort gate)” value is reported as “high polyreactivity”.
In the case of “QVQLVESGGGLVQAGGSLRLSCAASGFTLSYYAMGWYRQAPGKERELVAAMTWSDTSTYYADSVKGRFTISRDKAKNTVYVQMNSLKPEDTAVYYCAAEDEWVTWGWGYYYWGQGTQVTVSS”, the “polyreactivity (PSR sort gate)” value is reported as “high polyreactivity”.
In the case of “QVQLVESGGGLVQAGGSLRLSCAASGFTLWLNAMGWYRQAPGKERELVAAITTSDDGTYYADSVKGRFTISRDNAKKTVYLQMNSLKPEDTAVYYCAADYYSVLYDYWGQGTQVTVSS”, the “polyreactivity (PSR sort gate)” value is reported as “low polyreactivity”.
In the case of “QVQLVESGGGLVQAGGSLRLSCAASGFTLYYYDKGWYRQSPGKERELVAAISYSGGTTYYADSVKGRFTISRDNAKNTVYLQMNSLNPDDTAVYYCAAEVGGYWADEYLGYDYWGLGTQVTVSS”, the “polyreactivity (PSR sort gate)” value is reported as “low polyreactivity”.
For “QVQLVESGGGLVQAGGSLRLSCAASGFTRIYAMGWYRQAPGKERELVAAISQRGGRTYYADSVKGRFTISRDNAKNTVYLQMNSLKPEDTAVYYCAVRGPYQGRTRYYYWGQGTQVTVSS”, the “polyreactivity (PSR sort gate)” value was “high polyreactivity”.
With “QVQLVESGGGLVQAGGSLRLSCAASGFTSDAYAMGCYRQAPGKDRELVAAISGSGDITYYADSVKGRFTISRDNAKYTVYFQMNSLKPEDTAVYYCSVGSYYAWFYYWGQGTQVTVSS” the “polyreactivity (PSR sort gate)” value was “high polyreactivity”.
For “QVQLVESGGGLVQAGGSLRLSCAASGFTSEYNAMGWYRQAPGNERELVAAITSGGSTYYADSVEGRFTISRDNAKNTVYLQMNSLKPEDTAVDYCAADYYVWGYLLEYGGQGTQVTVSS”, the “polyreactivity (PSR sort gate)” value was “high polyreactivity”.
For “QVQLVESGGGLVQAGGSLRLSCAASGFTSLIYAMGWSRQAPGKESELVATITWGGGSTYADSVKGRFTISRDNAKNTVYLQMNSLKPEDTAVYYCNADIYDSWDYATVYSDRYDYWGQGTQVTVSS”, the “polyreactivity (PSR sort gate)” value was “low polyreactivity”.
In the case of “QVQLVESGGGLVQAGGSLRLSCAASGFTSLVNAMGWYRQAPGKERELVAAITGGGSTNYADSVKGRFTISRDNAKNTVYLQMNSLKPEDTAVYYCNAVGYYGYPRIPQFYAFAFYYWGQGTQVTVSS”, the “polyreactivity (PSR sort gate)” value is reported as “low polyreactivity”.
